Test results published in PMC5180416 (Journal of the American Chemical Society, 2012).
Where two headings read alike, the source gives them in different places. Square brackets hold non-standard residues; d marks the D form. ACPC = not defined here; Ac3c = NC1(C(=O)O)CC1

Experiments:
[1] = biological target: T1, WDR5 (WD (Trp-Asp) repeat domain 5) (UniProt P61964 1-334); assay: fluorescence polarisation
[2] = biological target: T1, WDR5 (WD (Trp-Asp) repeat domain 5); assay: fluorescence polarisation; remark: listed apart in the source

Ki [1] [nM]	Ki [2] [nM]	Binder
60		Ac-[Ac3c]-Arg-Val-NH2 [ACPC-RV]
	600	Ac-Val-Arg-[ACPC]-NH2 (reading uncertain) [VR-ACPC]
